Measured values from patent publication US20220112276A1 (Janssen / Centocor, published 2022).

B1: 01C01R2L VHH Mono-Fc (Fc fusion)
chain: QVQLVESGGGLVQAGGSLRLSCAASGRTLRSYIVGWFRQAPGKEREFVAAVTWSDGRRVTADPVKGRFTISRDNAKNTVYLQMDSLKPEDAAVYYCAVSRGGAYEYSRAYEYWGQGTLVTVSSSPAPELLGGPSVFLFPPKPKDTLMISRTPEVTCVVVDVSHEDPEVKFNWYVDGVEVHNAKTKPREEQYNSTYRVVSVLTVLHQDWLNGKEYKCKVSNKALPAPIEKTISKAKGQPREPQVYTKPPSREEMTKNQVSLSCLVKGFYPSDIAVEWESNGQPENNYKTTVPVLDSDGSFRLASYLTVDKSRWQQGNVFSCSVMHEALHNHYTQKSLSLSPGK
B2: 01C03R2L VHH Mono-Fc (Fc fusion)
chain: EVQLVESGGGLVQAGGSLRLSCAASGRTLRSYIVGWFRQAPGKEREFVAAVTWSDGRRVTADPVKGRFTISRDNAKNTVYLQMDSLKPEDAAVYYCAVSHGGAYVESRAYEYWGQGTQVTVSSSPAPELLGGPSVFLFPPKPKDTLMISRTPEVTCVVVDVSHEDPEVKFNWYVDGVEVHNAKTKPREEQYNSTYRVVSVLTVLHQDWLNGKEYKCKVSNKALPAPIEKTISKAKGQPREPQVYTKPPSREEMTKNQVSLSCLVKGFYPSDIAVEWESNGQPENNYKTTVPVLDSDGSFRLASYLTVDKSRWQQGNVFSCSVMHEALHNHYTQKSLSLSPGK
B3: 01G05R2LS VHH Mono-Fc (Fc fusion)
chain: QVQLVESGGGLVQAGDSLALSCAGSGDTFSNYAMGWFRQAPGKEREFVADISWYSANIGYADSVKGRFTISRDNAKNMVTLRMNSLKPEDTAVYYCAADRNHWPVKGDYWGQGTQVTVSSSPAPELLGGPSVFLFPPKPKDTLMISRTPEVTCVVVDVSHEDPEVKFNWYVDGVEVHNAKTKPREEQYNSTYRVVSVLTVLHQDWLNGKEYKCKVSNKALPAPIEKTISKAKGQPREPQVYTKPPSREEMTKNQVSLSCLVKGFYPSDIAVEWESNGQPENNYKTTVPVLDSDGSFRLASYLTVDKSRWQQGNVFSCSVMHEALHNHYTQKSLSLSPGK
B4: 02H04R3 VHH Mono-Fc (Fc fusion)
chain: EVQLVESGGGLVQPGGRLRLSCAASGSIFSIRDMGWYRQAPGKQRELVAIFARGGSTHYADSVKGRFTISRDNAKNTVYLQMNSLEPEDTAAYYCNAEVATMIQPGFRDYWGQGTQVTVSSSPAPELLGGPSVFLFPPKPKDTLMISRTPEVTCVVVDVSHEDPEVKFNWYVDGVEVHNAKTKPREEQYNSTYRVVSVLTVLHQDWLNGKEYKCKVSNKALPAPIEKTISKAKGQPREPQVYTKPPSREEMTKNQVSLSCLVKGFYPSDIAVEWESNGQPENNYKTTVPVLDSDGSFRLASYLTVDKSRWQQGNVFSCSVMHEALHNHYTQKSLSLSPGK
B5: 01A03R3L VHH Mono-Fc (Fc fusion)
chain: EVQLVESGGGLVQPGGQLRLSCAASGSIASVRDMAWYRQAPGKQRGLVAIFARGGTTHYADSVKGRFTISRDNAKNTVYLQMNSLEPEDTAAYYCNAEVATMFQPGFRDYWGRGTLVTVSSSPAPELLGGPSVFLFPPKPKDTLMISRTPEVTCVVVDVSHEDPEVKFNWYVDGVEVHNAKTKPREEQYNSTYRVVSVLTVLHQDWLNGKEYKCKVSNKALPAPIEKTISKAKGQPREPQVYTKPPSREEMTKNQVSLSCLVKGFYPSDIAVEWESNGQPENNYKTTVPVLDSDGSFRLASYLTVDKSRWQQGNVFSCSVMHEALHNHYTQKSLSLSPGK
B6: 01A04R3LS VHH Mono-Fc (Fc fusion)
chain: QVQLVESGGGSVQPGGSLRLSCAASGIDVSISTIMWYRQPPGRQRELVADVIPSGRSTTYTESVKGRFTVTRDNAKNTVYLQMSGLKPEDTAVYYCNAFVRRENYWGQGTQVTVSSSPAPELLGGPSVFLFPPKPKDTLMISRTPEVTCVVVDVSHEDPEVKFNWYVDGVEVHNAKTKPREEQYNSTYRVVSVLTVLHQDWLNGKEYKCKVSNKALPAPIEKTISKAKGQPREPQVYTKPPSREEMTKNQVSLSCLVKGFYPSDIAVEWESNGQPENNYKTTVPVLDSDGSFRLASYLTVDKSRWQQGNVFSCSVMHEALHNHYTQKSLSLSPGK
B7: 01F05R2LS VHH Mono-Fc (Fc fusion)
chain: QVQLVESGGGLVQAGGSLRLSCAASGSIFAINGMGWYRQAPGKQRELVAVITRGGSTNYADSVKGRFTISRDNAKNTVSLQMNSLKPEDTAVYYCAATGVLAGWAAGDGMDYWGKGTLVTVSSSPAPELLGGPSVFLFPPKPKDTLMISRTPEVTCVVVDVSHEDPEVKFNWYVDGVEVHNAKTKPREEQYNSTYRVVSVLTVLHQDWLNGKEYKCKVSNKALPAPIEKTISKAKGQPREPQVYTKPPSREEMTKNQVSLSCLVKGFYPSDIAVEWESNGQPENNYKTTVPVLDSDGSFRLASYLTVDKSRWQQGNVFSCSVMHEALHNHYTQKSLSLSPGK
B8: 01A02R3 VHH Mono-Fc (Fc fusion)
chain: EVQLVESGGGLVQSGGSLRLSCAASGRTFDQFTVGWFRQAPGKEREFVTAIRWSGSTTYRYYADSVKGRFTISRDNARNTVDLQMNSLKPEDSAVYYCAGQMSQWSDPRGDDYDSWGQGTLVTVSSSPAPELLGGPSVFLFPPKPKDTLMISRTPEVTCVVVDVSHEDPEVKFNWYVDGVEVHNAKTKPREEQYNSTYRVVSVLTVLHQDWLNGKEYKCKVSNKALPAPIEKTISKAKGQPREPQVYTKPPSREEMTKNQVSLSCLVKGFYPSDIAVEWESNGQPENNYKTTVPVLDSDGSFRLASYLTVDKSRWQQGNVFSCSVMHEALHNHYTQKSLSLSPGK
B9: 01B07R2L VHH Mono-Fc (Fc fusion)
chain: EVQLVESGGGLVQAGGSLRLSCAASGRTFSSDAVGWFRQAPGKEREFVAHIHWSGDFTTYYYYGDFVKGRFTISRGTAKNTVYLQMNSLKPEDTAVYYCAAPKGAIGDPRSTREYDYWGQGTLVTVSSSPAPELLGGPSVFLFPPKPKDTLMISRTPEVTCVVVDVSHEDPEVKFNWYVDGVEVHNAKTKPREEQYNSTYRVVSVLTVLHQDWLNGKEYKCKVSNKALPAPIEKTISKAKGQPREPQVYTKPPSREEMTKNQVSLSCLVKGFYPSDIAVEWESNGQPENNYKTTVPVLDSDGSFRLASYLTVDKSRWQQGNVFSCSVMHEALHNHYTQKSLSLSPGK
B10: 01E05R2 VHH Mono-Fc (Fc fusion)
chain: QVQLVESGGGLVQAGGSLRLSCAASGRAFSSGRMGWFRQAPGKEREFVAAISWSGHTTYKYYADSVKGRFTISRENAKNTVSLQMNSLKPEDTAVYYCAARQSLVAGGDPRGQSEYDYWGQGTLVTVSSSPAPELLGGPSVFLFPPKPKDTLMISRTPEVTCVVVDVSHEDPEVKFNWYVDGVEVHNAKTKPREEQYNSTYRVVSVLTVLHQDWLNGKEYKCKVSNKALPAPIEKTISKAKGQPREPQVYTKPPSREEMTKNQVSLSCLVKGFYPSDIAVEWESNGQPENNYKTTVPVLDSDGSFRLASYLTVDKSRWQQGNVFSCSVMHEALHNHYTQKSLSLSPGK

Assays:
[1] = biological target: T1, mouse pIgR extracellular domain (ECD) (mouse, UniProt O70570 19-645); assay: SPR, VHH captured by anti-Fc, ECD analyte
T1 construct: Bought from R&D Systems (Cat 2800-PG-050); also called mpIgR ECD
T1 sequence: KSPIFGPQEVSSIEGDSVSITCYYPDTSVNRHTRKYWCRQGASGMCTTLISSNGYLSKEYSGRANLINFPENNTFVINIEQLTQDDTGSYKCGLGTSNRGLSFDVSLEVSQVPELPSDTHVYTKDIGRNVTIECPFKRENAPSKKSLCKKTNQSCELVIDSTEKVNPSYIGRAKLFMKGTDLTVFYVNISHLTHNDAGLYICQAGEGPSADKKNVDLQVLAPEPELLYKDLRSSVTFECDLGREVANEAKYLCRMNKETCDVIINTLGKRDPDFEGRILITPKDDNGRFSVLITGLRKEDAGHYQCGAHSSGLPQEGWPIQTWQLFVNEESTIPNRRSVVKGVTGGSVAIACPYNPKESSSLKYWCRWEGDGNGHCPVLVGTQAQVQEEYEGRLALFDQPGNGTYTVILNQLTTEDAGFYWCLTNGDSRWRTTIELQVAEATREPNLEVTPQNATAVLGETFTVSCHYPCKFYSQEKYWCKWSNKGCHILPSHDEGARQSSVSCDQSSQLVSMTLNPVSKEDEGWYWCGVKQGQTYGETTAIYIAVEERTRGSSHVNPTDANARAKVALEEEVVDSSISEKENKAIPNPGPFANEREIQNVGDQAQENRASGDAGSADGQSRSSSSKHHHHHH
Summary of the method: (§1)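 Single-cycle kinetics: ECD analyte from 30 nM, 3-fold series, low to high, with 30 min off-rate monitoring, over VHH captured at 0.5 ug/ml (~200-300 RU). HBSP plus 100 ug/ml BSA at 30 μL/min. Reference cell and buffer blank subtracted; global 1:1 Langmuir fit gave kon, koff, KD.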

[2] = biological target: T2, human pIgR extracellular domain (ECD) (human, UniProt P01833 19-638); assay: SPR
T2 construct: Bought from R&D Systems (Cat 2717-PG-050); also called hpIgR ECD

[3] = biological target: T3, rat pIgR extracellular domain (rat, UniProt P15083 19-643); assay: SPR, VHH captured by anti-Fc, ECD analyte
T3 construct: extracellular domain
T3 sequence (looked up): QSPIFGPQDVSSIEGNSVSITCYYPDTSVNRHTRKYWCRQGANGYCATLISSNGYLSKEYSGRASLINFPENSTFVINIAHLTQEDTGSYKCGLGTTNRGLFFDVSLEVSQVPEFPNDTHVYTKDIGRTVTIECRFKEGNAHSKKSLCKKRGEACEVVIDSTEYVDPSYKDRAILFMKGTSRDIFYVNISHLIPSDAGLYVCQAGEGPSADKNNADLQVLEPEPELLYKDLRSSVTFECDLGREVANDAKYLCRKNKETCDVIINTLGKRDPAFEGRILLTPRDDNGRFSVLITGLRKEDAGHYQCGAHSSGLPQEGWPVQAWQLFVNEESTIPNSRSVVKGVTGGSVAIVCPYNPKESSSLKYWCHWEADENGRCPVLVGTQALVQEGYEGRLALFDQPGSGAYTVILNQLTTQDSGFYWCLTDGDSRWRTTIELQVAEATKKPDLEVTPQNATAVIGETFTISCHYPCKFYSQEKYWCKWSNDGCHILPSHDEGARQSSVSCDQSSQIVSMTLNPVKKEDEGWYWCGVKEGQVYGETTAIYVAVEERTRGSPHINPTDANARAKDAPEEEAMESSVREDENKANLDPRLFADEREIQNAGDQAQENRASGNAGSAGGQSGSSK
Summary of the method: as §1

[4] = biological target: T4, cynomolgus monkey pIgR extracellular domain (cynomolgus monkey, UniProt A0A2K5WMU9 19-638); assay: SPR, VHH captured by anti-Fc, ECD analyte
T4 construct: extracellular domain
Summary of the method: as §1

[5] = biological target: T2, human pIgR extracellular domain (ECD); assay: SPR, VHH captured by anti-Fc, ECD analyte
Summary of the method: as §1

T4 sequence (A0A2K5WMU9 entry or part of it): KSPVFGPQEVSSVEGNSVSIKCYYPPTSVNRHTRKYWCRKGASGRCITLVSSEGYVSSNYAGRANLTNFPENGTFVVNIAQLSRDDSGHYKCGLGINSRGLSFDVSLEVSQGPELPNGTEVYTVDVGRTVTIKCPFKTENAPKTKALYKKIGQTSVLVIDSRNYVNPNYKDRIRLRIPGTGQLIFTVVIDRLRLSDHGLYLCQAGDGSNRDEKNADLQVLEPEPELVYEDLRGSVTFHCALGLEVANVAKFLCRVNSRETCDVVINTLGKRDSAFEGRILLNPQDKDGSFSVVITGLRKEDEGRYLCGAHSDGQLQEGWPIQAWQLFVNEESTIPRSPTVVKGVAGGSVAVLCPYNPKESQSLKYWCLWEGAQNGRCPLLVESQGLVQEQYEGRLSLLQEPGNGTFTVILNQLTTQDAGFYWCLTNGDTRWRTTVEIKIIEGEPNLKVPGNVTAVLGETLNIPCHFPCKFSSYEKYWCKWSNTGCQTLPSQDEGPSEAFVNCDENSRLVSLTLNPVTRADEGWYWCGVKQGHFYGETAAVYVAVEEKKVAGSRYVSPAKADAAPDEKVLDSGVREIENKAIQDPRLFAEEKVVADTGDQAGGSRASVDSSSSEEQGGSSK
T2 sequence (P01833 other isoform, or with tags, fused parts or gaps): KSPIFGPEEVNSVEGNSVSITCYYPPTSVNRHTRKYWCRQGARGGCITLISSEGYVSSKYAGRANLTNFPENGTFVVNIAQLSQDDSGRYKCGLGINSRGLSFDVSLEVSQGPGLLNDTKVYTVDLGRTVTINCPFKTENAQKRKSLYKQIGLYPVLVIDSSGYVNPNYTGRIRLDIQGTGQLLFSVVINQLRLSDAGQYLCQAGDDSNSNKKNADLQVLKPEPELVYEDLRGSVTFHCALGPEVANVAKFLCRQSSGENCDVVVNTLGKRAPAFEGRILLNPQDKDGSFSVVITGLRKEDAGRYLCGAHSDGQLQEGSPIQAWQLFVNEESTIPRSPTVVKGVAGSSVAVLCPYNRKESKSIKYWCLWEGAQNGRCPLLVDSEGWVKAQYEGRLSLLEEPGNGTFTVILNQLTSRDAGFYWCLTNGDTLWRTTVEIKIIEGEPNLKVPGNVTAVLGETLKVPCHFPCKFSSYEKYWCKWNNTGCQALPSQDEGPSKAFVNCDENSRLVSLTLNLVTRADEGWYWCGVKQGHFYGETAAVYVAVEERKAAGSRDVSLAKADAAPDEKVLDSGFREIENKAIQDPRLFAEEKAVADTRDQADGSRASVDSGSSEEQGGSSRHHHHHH

| Binder | Kd [1] [nM] | binding result [2] | Kd [3] [nM] | Kd [4] [nM] | Kd [5] [nM] |
| --- | --- | --- | --- | --- | --- |
| B1 | 6.55 | no binding (tested: 30 nM) | – | – | – |
| B2 | 3.67 | no binding (tested: 30 nM) | – | – | – |
| B3 | 19.8 | no binding (tested: 30 nM) | – | – | – |
| B4 | 46.6 | no binding (tested: 30 nM) | 25.4 | – | – |
| B5 | 6.06 | no binding (tested: 30 nM) | 2.91 | – | – |
| B6 | 3.29 | no binding (tested: 30 nM) | – | – | – |
| B7 | 3.98 | no binding (tested: 30 nM) | – | 2.72 | – |
| B8 | 7.18 | – | 2.78 | 4.97 | 17.9 |
| B9 | 4.46 | – | 2.33 | 2.11 | 11.4 |
| B10 | 17.3 | – | 16.1 | 36.2 | 34.2 |
